{
  "source": "patent US20060123518A1",
  "about": "“Methods for culturing cereal endosperm” (Pioneer Hi-Bred International, Inc., priority 2004, published 2006)",
  "molecules": {"B1": {"name": "calpastatin (protein, UniProt P20810 1-708, looked up)", "Calpastatin": "MNPTETKAIPVSQQMEGPHLPNKKKHKKQAVKTEPEKKSQSTKLSVVHEKKSQEGKPKEHTEPKSLPKQASDTGSNDAHNKKAVSRSAEQQPSEKSTEPKTKPQDMISAGGESVAGITAISGKPGDKKKEKKSLTPAVPVESKPDKPSGKSGMDAALDDLIDTLGGPEETEEENTTYTGPEVSDPMSSTYIEELGKREVTIPPKYRELLAKKEGITGPPADSSKPIGPDDAIDALSSDFTCGSPTAAGKKTEKEESTEVLKAQSAGTVRSAAPPQEKKRKVEKDTMSDQALEALSASLGTRQAEPELDLRSIKEVDEAKAKEEKLEKCGEDDETIPSEYRLKPATDKDGKPLLPEPEEKPKPRSESELIDELSEDFDRSECKEKPSKPTEKTEESKAAAPAPVSEAVCRTSMCSIQSAPPEPATLKGTVPDDAVEALADSLGKKEADPEDGKPVMDKVKEKAKEEDREKLGEKEETIPPDYRLEEVKDKDGKPLLPKESKEQLPPMSEDFLLDALSEDFSGPQNASSLKFEDAKLAAAISEVVSQTPASTTQAGAPPRDTSQSDKDLDDALDKLSDSLGQRQPDPDENKPMEDKVKEKAKAEHRDKLGERDDTIPPEYRHLLDDNGQDKPVKPPTKKSEDSKKPADDQDPIDALSGDLDSCPSTTETSQNTAKDKCKKAASSSKAPKNGGKAKDSAKTTEETSKPKDD"}},
  "tested_on": "aleurone cell development",
  "test": "Chemical genetics with in vitro cultured endosperm expressing Ltp2-driven ZsYellow in aleurone cells",
  "assay_type": "cell-based, maize",
  "settings": "in vitro endosperm cultures in liquid proliferation medium, 96 well plates; predicted result",
  "protocol": "In vitro cultured endosperm produced by the methods of the present invention and that express the ZsYellow fluorescent protein in aleurone cells under the control of the Ltp2 promoter are plated in 96 well microtiter plates with one endosperm added per well in liquid proliferation medium. To each well, a candidate chemical to be evaluated is added. The effect of the chemical on aleurone cell development is evaluated, for example, as the loss of aleurone cell identity as detected as lack of yellow fluorescence, either on the whole surface of the in vitro cultured endosperm or in patches on the surface. For example, a chemical genetics approach can be used to assess the function of the Dek1 gene product. The defective kernel 1 (dek1) gene is required for aleurone cell development in the endosperm of maize grains and this gene encodes a membrane protein of the calpain gene superfamily (Lid et al. (2002) Proc. Natl. Acad. Sci. USA. 99(8):5460-5465). Using mutant sector analysis, it has been shown that, if an aleurone cell looses the Dek1 gene function, the cell loses its aleurone cell identity and converts to a starchy endosperm cell fate (Becraft et al. (2000) Development 127:4039-4048). n this example, in vitro endosperm cultures are exposed to the calpain inhibitor calpastatin by the method described above.",
  "data": [
    {"molecule": "B1", "values": [
      {"measurement": "effect on aleurone cell identity (yellow fluorescence on endosperm surface)", "result": "lack of fluorescence in spot on the surface"}
    ]}
  ]
}
